Measurements reported in paper PMC8336837, “Structure of the human C9orf72-SMCR8 complex reveals a multivalent protein interaction architecture” (PLoS Biology, 2021).

T1: Strep-SMCR8ΔCC (SMCR8 mutant lacking its coiled-coil region) (human, UniProt Q8TEV9 1-937, missing residues 181 to 250)
T1 construct: SMCR8, human, lacking the coiled-coil region (missing residues 181 to 250); Cloned into pOPINE-3C-eGFP; source: HEK293T, transfected together with C9orf72, in lysate; not shown: twin-strep, N-terminal, kept
T1 sequence (looked up): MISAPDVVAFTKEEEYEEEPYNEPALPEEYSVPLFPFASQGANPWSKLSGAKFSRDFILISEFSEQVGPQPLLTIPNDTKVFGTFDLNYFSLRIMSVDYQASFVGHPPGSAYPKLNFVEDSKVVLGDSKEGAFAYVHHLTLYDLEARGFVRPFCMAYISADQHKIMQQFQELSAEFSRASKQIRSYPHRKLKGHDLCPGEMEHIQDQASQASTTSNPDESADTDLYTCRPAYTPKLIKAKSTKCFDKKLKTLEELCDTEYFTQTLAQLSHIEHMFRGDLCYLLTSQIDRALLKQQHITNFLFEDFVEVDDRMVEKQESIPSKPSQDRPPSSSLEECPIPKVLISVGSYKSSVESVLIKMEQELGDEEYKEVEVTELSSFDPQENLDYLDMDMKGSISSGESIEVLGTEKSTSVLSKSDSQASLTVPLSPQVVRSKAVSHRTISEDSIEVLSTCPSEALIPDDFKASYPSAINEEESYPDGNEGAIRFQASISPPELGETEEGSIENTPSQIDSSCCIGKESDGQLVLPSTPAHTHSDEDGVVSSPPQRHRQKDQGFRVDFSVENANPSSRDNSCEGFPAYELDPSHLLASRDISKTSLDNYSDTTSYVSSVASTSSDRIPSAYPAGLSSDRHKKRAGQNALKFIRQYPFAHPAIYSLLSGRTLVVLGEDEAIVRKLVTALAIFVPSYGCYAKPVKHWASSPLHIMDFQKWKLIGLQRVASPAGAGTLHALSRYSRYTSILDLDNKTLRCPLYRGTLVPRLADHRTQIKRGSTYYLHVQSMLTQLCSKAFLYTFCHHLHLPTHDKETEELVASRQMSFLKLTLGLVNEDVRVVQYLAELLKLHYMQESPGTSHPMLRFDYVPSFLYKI

T2: C9orf72 (full-length) (human, UniProt Q96LT7 1-481)
T2 construct: C9orf72, human, the longer isoform (481 AA); open reading frame commercially synthesized with codon optimization; also called Fl-C9orf72; C9orf72 Fl; source: Sf-9 insect cells, co-expressed with SMCR8 or SMCR8N-C, purified (Strep-Tactin, size-exclusion chromatography)
T2 sequence (looked up): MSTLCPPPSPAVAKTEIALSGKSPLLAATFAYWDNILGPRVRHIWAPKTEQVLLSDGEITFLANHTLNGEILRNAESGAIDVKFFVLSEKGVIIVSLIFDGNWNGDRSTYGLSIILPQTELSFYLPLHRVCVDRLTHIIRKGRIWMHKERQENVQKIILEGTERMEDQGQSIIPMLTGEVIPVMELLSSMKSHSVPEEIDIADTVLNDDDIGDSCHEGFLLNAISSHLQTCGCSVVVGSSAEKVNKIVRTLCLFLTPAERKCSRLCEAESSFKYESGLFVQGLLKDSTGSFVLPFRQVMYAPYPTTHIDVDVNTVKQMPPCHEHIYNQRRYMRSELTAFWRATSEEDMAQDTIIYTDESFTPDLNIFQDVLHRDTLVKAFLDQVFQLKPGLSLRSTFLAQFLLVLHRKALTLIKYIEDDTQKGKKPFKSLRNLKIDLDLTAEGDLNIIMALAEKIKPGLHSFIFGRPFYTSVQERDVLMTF

B1: WDR41 (in HEK293T cells) (natural protein, human (endogenous in HEK293T), UniProt Q9HAD4 1-459, looked up)
chain: MLRWLIGGGREPQGLAEKSPLQTIGEEQTQNPYTELLVLKAHHDIVRFLVQLDDYRFASAGDDGIVVVWNAQTGEKLLELNGHTQKITAIITFPSLESCEEKNQLILTASADRTVIVWDGDTTRQVQRISCFQSTVKCLTVLQRLDVWLSGGNDLCVWNRKLDLLCKTSHLSDTGISALVEIPKNCVVAAVGKELIIFRLVAPTEGSLEWDILEVKRLLDHQDNILSLINVNDLSFVTGSHVGELIIWDALDWTMQAYERNFWDPSPQLDTQQEIKLCQKSNDISIHHFTCDEENVFAAVGRGLYVYSLQMKRVIACQKTAHDSNVLHVARLPNRQLISCSEDGSVRIWELREKQQLAAEPVPTGFFNMWGFGRVSKQASQPVKKQQENATSCSLELIGDLIGHSSSVEMFLYFEDHGLVTCSADHLIILWKNGERESGLRSLRLFQKLEENGDLYLAV
notes: WDR41, found by mass spectrometry in Strep-Tactin purifications from HEK293T cells (only SMCR8 and C9orf72 plasmids were transfected); source: endogenous, HEK293T lysate
B2: carboxyl-terminal domain of SMCR8 (SMCR8C), tryptic fragment (domain or fragment, human, UniProt Q8TEV9 620-937, looked up)
chain: RQKDQGFRVDFSVENANPSSRDNSCEGFPAYELDPSHLLASRDISKTSLDNYSDTTSYVSSVASTSSDRIPSAYPAGLSSDRHKKRAGQNALKFIRQYPFAHPAIYSLLSGRTLVVLGEDEAIVRKLVTALAIFVPSYGCYAKPVKHWASSPLHIMDFQKWKLIGLQRVASPAGAGTLHALSRYSRYTSILDLDNKTLRCPLYRGTLVPRLADHRTQIKRGSTYYLHVQSMLTQLCSKAFLYTFCHHLHLPTHDKETEELVASRQMSFLKLTLGLVNEDVRVVQYLAELLKLHYMQESPGTSHPMLRFDYVPSFLYKI
notes: SMCR8, human, residues 620 to 937, product of limited proteolysis identified by mass spectrometry; source: Sf-9 insect cells; purified full-length C9orf72-SMCR8-WDR41 complex cut with trypsin

Legend:
[1] = molecular target: T1, Strep-SMCR8ΔCC (SMCR8 mutant lacking …); assay: affinity purification with mass spectrometry; Strep-SMCR8 (WT or ΔCC) and C9orf72 transfected into HEK293T; cells fed or starved 90 minutes (amino acid- and glucose-free media) before lysis; magnetic Strep-Tactin beads; label-free quantification (LFQ), triplicates; conditions: partners not purified
C9orf72 (full-length) = molecular target: T2, C9orf72 (full-length); assay: SEC; limited proteolysis: full-length C9orf72-SMCR8-WDR41 complex (0.93 mg) with trypsin (4.6 ug) 20 minutes on ice, then size-exclusion chromatography; bands of the peak fraction identified by tandem mass spectrometry; conditions: both partners purified

Binder | fold increase of WDR41 (LFQ) against SMCR8 WT fed, fed cells [1] [fold] | fold increase of WDR41 (LFQ) against SMCR8 WT fed, starved cells [1] [fold] | binding result (C9orf72 (full-length))
B1 | ~4.5 | ~5.5 | –
B2 | – | – | binds
